# Tested on: Escherichia coli TOP10
# Test: shrunken log2 fold change of peptide-encoding DNA abundance (4.5 h post-induction vs induction); higher = less antimicrobial activity (less host growth inhibition)
# Settings: time post-induction: 4.5 h; library: site-saturation at positions 5, 18, 19, 20
# 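Note: peptides expressed intracellularly from a pBAD plasmid library in pooled LB shake-flask culture, induced with 0.3% L-arabinose, DNA abundance read by NGS, three biological replicates, DESeq2 with apeglm shrinkage.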
row,Sequence,shrunken log2 fold change
1,RRIRGRPPRLPRPRPRPNSEPRP,0.295
2,RRIRSRPPRLPRPRPRPHNHPRP,-0.576
3,RRIRTRPPRLPRPRPRPPPPPRP,0.862
4,RRIRFRPPRLPRPRPRPTDKPRP,0.00702
5,RRIRARPPRLPRPRPRPHWCPRP,0.0773
6,RRIRWRPPRLPRPRPRPRDSPRP,-0.299
7,RRIRVRPPRLPRPRPRPKFFPRP,-0.0182
8,RRIRMRPPRLPRPRPRPKASPRP,1.97
9,RRIRVRPPRLPRPRPRPCHLPRP,-0.00192
10,RRIRIRPPRLPRPRPRPELKPRP,0.224
11,RRIRARPPRLPRPRPRPQNPPRP,0.0626
12,RRIRLRPPRLPRPRPRPVGHPRP,0.306
13,RRIRCRPPRLPRPRPRPCDAPRP,-0.466
14,RRIRSRPPRLPRPRPRPIPNPRP,-0.432
15,RRIRTRPPRLPRPRPRPLCWPRP,0.0326
16,RRIRFRPPRLPRPRPRPCHNPRP,-0.0447
17,RRIRLRPPRLPRPRPRPDHQPRP,-0.118
18,RRIRCRPPRLPRPRPRPMNWPRP,-0.217
19,RRIRARPPRLPRPRPRPYCSPRP,0.0743
20,RRIRFRPPRLPRPRPRPPKEPRP,0.0652
21,RRIRVRPPRLPRPRPRPITAPRP,-0.272
22,RRIRYRPPRLPRPRPRPIDRPRP,-0.017

row,Sequence,shrunken log2 fold change
1,RRIRDRPPRLPRPRPRPDNWPRP,-0.232
2,RRIRQRPPRLPRPRPRPISFPRP,-0.0842
3,RRIRERPPRLPRPRPRPGHTPRP,-0.0164
4,RRIRCRPPRLPRPRPRPPIFPRP,-0.197
5,RRIRMRPPRLPRPRPRPRDDPRP,0.202
6,RRIRYRPPRLPRPRPRPLLWPRP,-0.246
7,RRIRCRPPRLPRPRPRPFTQPRP,-0.559
8,RRIRGRPPRLPRPRPRPMDIPRP,0.0445
9,RRIRGRPPRLPRPRPRPESQPRP,1.57
10,RRIRMRPPRLPRPRPRPYCRPRP,-0.0603
11,RRIRDRPPRLPRPRPRPLLMPRP,0.359
12,RRIRLRPPRLPRPRPRPIHYPRP,-0.186
13,RRIRARPPRLPRPRPRPHSRPRP,-0.0946
14,RRIRDRPPRLPRPRPRPKDDPRP,0.0765
15,RRIRKRPPRLPRPRPRPLNQPRP,-0.128
16,RRIRTRPPRLPRPRPRPKFVPRP,0.368
17,RRIRWRPPRLPRPRPRPLGHPRP,0.035
18,RRIRERPPRLPRPRPRPVLCPRP,0.0605
19,RRIRWRPPRLPRPRPRPLSCPRP,0.154
20,RRIRIRPPRLPRPRPRPWISPRP,-0.0286
21,RRIRYRPPRLPRPRPRPSYGPRP,-0.383
22,RRIRSRPPRLPRPRPRPSKHPRP,-0.461

row,Sequence,shrunken log2 fold change
1,RRIRSRPPRLPRPRPRPETMPRP,0.205
2,RRIRGRPPRLPRPRPRPRPQPRP,0.863
3,RRIRNRPPRLPRPRPRPPGYPRP,0.39
4,RRIRLRPPRLPRPRPRPPFLPRP,0.105
5,RRIRMRPPRLPRPRPRPTSNPRP,0.00211
6,RRIRHRPPRLPRPRPRPCQWPRP,-0.0469
7,RRIRARPPRLPRPRPRPPCYPRP,0.146
8,RRIRGRPPRLPRPRPRPLSFPRP,0.121
9,RRIRLRPPRLPRPRPRPVLRPRP,-0.113
10,RRIRLRPPRLPRPRPRPMGEPRP,0.136
11,RRIRVRPPRLPRPRPRPLENPRP,0.124
12,RRIRKRPPRLPRPRPRPTYQPRP,-0.191
13,RRIRCRPPRLPRPRPRPCGHPRP,-0.101
14,RRIRGRPPRLPRPRPRPRPWPRP,0.77
15,RRIRSRPPRLPRPRPRPAQGPRP,0.19
16,RRIRARPPRLPRPRPRPDSDPRP,-0.0357
17,RRIRTRPPRLPRPRPRPAYNPRP,-0.355
18,RRIRERPPRLPRPRPRPCNQPRP,-0.296
19,RRIRVRPPRLPRPRPRPTLIPRP,0.0816
20,RRIRKRPPRLPRPRPRPFACPRP,-0.0138
21,RRIRARPPRLPRPRPRPAWIPRP,0.116
22,RRIRMRPPRLPRPRPRPIIPPRP,0.000609

row,Sequence,shrunken log2 fold change
1,RRIRRRPPRLPRPRPRPSPKPRP,0.127
2,RRIRYRPPRLPRPRPRPMKFPRP,-0.0276
3,RRIRCRPPRLPRPRPRPPPRPRP,1.9
4,RRIRSRPPRLPRPRPRPNGLPRP,-0.0247
5,RRIRQRPPRLPRPRPRPPCIPRP,-0.053
6,RRIRVRPPRLPRPRPRPSYLPRP,0.753
7,RRIRQRPPRLPRPRPRPPCRPRP,-0.0419
8,RRIRVRPPRLPRPRPRPVLGPRP,0.299
9,RRIRTRPPRLPRPRPRPKPAPRP,0.0421
10,RRIRSRPPRLPRPRPRPNEQPRP,0.0903
11,RRIRSRPPRLPRPRPRPGAWPRP,0.342
12,RRIRQRPPRLPRPRPRPLGNPRP,-0.263
13,RRIRFRPPRLPRPRPRPNCKPRP,-0.0929
14,RRIRQRPPRLPRPRPRPMHMPRP,-0.369
15,RRIRARPPRLPRPRPRPWPMPRP,0.18
16,RRIRARPPRLPRPRPRPQSKPRP,0.0474
17,RRIRRRPPRLPRPRPRPNSRPRP,-0.0456
18,RRIRERPPRLPRPRPRPVDQPRP,0.0107
19,RRIRFRPPRLPRPRPRPLHWPRP,0.0916
20,RRIRKRPPRLPRPRPRPLDRPRP,-0.0461
21,RRIRGRPPRLPRPRPRPEFEPRP,0.612
22,RRIRVRPPRLPRPRPRPVEQPRP,-0.0734

row,Sequence,shrunken log2 fold change
1,RRIRTRPPRLPRPRPRPRMHPRP,0.0254
2,RRIRYRPPRLPRPRPRPCYRPRP,-0.172
3,RRIRFRPPRLPRPRPRPFKNPRP,-0.46
4,RRIRYRPPRLPRPRPRPMTPPRP,-0.0195
5,RRIRIRPPRLPRPRPRPVCSPRP,-0.174
6,RRIRDRPPRLPRPRPRPHHAPRP,0.00408
7,RRIRPRPPRLPRPRPRPFICPRP,-0.276
8,RRIRLRPPRLPRPRPRPSIAPRP,-0.217
9,RRIRNRPPRLPRPRPRPPMDPRP,-0.508
10,RRIRARPPRLPRPRPRPYCRPRP,-0.885
11,RRIRSRPPRLPRPRPRPEYLPRP,-0.0519
12,RRIRKRPPRLPRPRPRPMCKPRP,0.0429
13,RRIRWRPPRLPRPRPRPTCAPRP,0.868
14,RRIRPRPPRLPRPRPRPIPFPRP,-0.0358
15,RRIRPRPPRLPRPRPRPNEPPRP,0.146
16,RRIRGRPPRLPRPRPRPQCAPRP,1.11
17,RRIRRRPPRLPRPRPRPASYPRP,-0.111
18,RRIRWRPPRLPRPRPRPPSDPRP,0.184
19,RRIRSRPPRLPRPRPRPAHEPRP,-0.074
20,RRIRQRPPRLPRPRPRPVYGPRP,-0.258
21,RRIRDRPPRLPRPRPRPCIVPRP,-0.0549

# From the supplement of paper PMC9112550, “Optimization of the antimicrobial peptide Bac7 by deep mutational scanning” (BMC Biology, 2022)
